In publication PMC2074667:

How the values were obtained:
[1] = biological target: high-affinity cell-surface IFN-alpha receptor of human lung carcinoma cells (human (endogenous in PC9 and other lung carcinoma cell lines)); test: radioligand binding; several lung carcinoma cell lines (lines not named) in suspension, room temperature, 2 h, 0.1-4 nM [125I]IFN-a; non-specific binding measured with 100-fold excess of unlabelled IFN-a; Scatchard analysis
[2] = biological target: high-affinity cell-surface IFN-alpha receptor of human lung carcinoma cells (human (endogenous in PC9 and other lung carcinoma cell lines)); test: radioligand binding; PC9 cells in suspension (200 ul of 5 x 10^6 cells/ml) incubated at room temperature for 2 h with 0.1-4 nM [125I]IFN-a; non-specific binding measured with 100-fold excess of unlabelled IFN-a; Scatchard analysis

Kd [1]: 20 to 100 pM | Kd [2]: 42 pM
Substance: Pure recombinant human IFN-alpha, labelled with 125I (from UniProt P01563 24-188) (ligand)
